{
  "source": "patent US20260199522",
  "target": "purified C3b (Complement Technology, Inc. #A114), P01024",
  "sequence (P01024 whole entry, looked up)": "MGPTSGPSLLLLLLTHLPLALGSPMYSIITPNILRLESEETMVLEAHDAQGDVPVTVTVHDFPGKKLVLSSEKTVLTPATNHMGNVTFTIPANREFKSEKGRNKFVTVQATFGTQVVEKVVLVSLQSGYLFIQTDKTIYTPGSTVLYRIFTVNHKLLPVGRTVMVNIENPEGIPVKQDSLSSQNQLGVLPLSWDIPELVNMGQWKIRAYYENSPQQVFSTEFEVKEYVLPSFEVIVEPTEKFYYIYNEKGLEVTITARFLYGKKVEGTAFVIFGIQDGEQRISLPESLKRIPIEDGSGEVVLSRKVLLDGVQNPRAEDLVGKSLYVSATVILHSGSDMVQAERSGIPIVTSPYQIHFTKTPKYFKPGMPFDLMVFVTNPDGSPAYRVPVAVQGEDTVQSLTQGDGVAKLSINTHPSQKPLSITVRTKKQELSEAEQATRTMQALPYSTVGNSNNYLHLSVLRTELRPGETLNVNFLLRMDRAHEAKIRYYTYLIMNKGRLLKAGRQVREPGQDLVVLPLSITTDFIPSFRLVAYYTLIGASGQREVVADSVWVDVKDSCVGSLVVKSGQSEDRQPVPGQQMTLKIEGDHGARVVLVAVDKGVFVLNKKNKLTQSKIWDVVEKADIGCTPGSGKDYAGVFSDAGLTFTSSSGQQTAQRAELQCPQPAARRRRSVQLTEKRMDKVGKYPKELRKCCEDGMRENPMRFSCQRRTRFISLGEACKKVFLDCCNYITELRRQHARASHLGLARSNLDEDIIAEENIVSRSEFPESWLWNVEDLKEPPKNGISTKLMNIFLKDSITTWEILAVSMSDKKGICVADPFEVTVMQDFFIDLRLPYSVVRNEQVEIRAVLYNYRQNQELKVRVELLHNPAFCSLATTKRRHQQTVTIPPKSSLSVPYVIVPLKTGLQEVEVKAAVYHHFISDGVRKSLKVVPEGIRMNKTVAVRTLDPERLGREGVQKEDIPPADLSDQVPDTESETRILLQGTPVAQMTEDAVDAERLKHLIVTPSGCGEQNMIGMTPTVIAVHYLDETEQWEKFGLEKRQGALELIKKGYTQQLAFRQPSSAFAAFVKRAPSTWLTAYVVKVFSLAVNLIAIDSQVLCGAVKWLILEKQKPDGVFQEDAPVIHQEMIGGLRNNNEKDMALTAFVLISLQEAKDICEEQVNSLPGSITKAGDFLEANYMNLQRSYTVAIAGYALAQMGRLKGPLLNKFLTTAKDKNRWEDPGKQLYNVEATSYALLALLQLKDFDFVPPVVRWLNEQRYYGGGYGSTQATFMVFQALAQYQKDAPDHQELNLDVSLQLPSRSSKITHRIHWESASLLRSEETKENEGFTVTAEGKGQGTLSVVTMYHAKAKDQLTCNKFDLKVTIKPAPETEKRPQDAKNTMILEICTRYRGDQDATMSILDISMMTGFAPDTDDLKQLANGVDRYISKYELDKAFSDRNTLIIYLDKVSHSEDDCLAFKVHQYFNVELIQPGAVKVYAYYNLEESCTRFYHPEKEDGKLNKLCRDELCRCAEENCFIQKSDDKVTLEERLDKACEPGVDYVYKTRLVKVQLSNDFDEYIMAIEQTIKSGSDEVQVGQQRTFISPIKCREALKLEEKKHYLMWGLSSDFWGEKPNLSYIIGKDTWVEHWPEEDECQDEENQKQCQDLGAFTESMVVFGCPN",
  "data": [
    {"protein": "human Complement Factor I (hCFI) expressed from the AAV-CFI-1.0 vector, secreted into cell media of transduced rabbit retinal explants (protein) KVTYTSQEDLVEKKCLAKKYTHLSCDKVFCQPWQRCIEGTCVCKLPYQCPKNGTAVCATNRRSFPTYCQQKSLECLHPGTKFLNNGTCTAEGKFSVSLKHGNTDSEGIVEVKLVDQDKTMFICKSSWSMREANVACLDLGFQQGADTQRRFKLSDLSINSTECLHVHCRGLETSLAECTFTKRRTMGYQDFADVVCYTQKADSPMDDFFQCVNGKYISQMKACDGINDCGDQSDELCCKACQGKGFHCKSGVCIPSQYQCNGEVDCITGEDEVGCAGFASVTQEETEILTADMDAERRRIKSLLPKLSCGVKNRMHIRRKRIVGGKRAQLGDLPWQVAIKDASGITCGGIYIGGCWILTAAHCLRASKTHRYQIWTTVVDWIHPDLKRIVIEYVDRIIFHENYNAGTYQNDIALIEMKKDGNKKDCELPRSIPACVPWSPYLFQPNDTCIVSGWGREKDNERVFSLQWGEVKLISNCSKFYGNRFYEKEMECAGTYDGSIDACKGDSGGPLVCMDANNVTYVWGVVSWGENCGKPEFPGVYTKVANYFDWISYHVGRPFISQYNV", "values": [
      {"measurement": "C3b cleavage assay (Western blot stained with anti-C3 antibody; appearance of iC3b 68 kDa and 43 kDa bands), in the presence of purified CFH", "result": "The iC3b 43 kDa polypeptide is present in all lanes containing cell media from rabbit explants transduced with AAV-CFI-1.0 package into either AAV2.7m8 or AAV2.5T-LSV1 capsid serotypes"}
    ]}
  ]
}
